{
  "source": "patent US20220306765A1",
  "about": "(SUZHOU TRANSCENTA THERAPEUTICS, published 2022)",
  "key": {"human CLDN18.2-mRFP N45Q": {"molecular_target": "human CLDN18.2-mRFP N45Q (human)", "sequence (chain, as listed by the source N45Q N45Q limits assumed)": "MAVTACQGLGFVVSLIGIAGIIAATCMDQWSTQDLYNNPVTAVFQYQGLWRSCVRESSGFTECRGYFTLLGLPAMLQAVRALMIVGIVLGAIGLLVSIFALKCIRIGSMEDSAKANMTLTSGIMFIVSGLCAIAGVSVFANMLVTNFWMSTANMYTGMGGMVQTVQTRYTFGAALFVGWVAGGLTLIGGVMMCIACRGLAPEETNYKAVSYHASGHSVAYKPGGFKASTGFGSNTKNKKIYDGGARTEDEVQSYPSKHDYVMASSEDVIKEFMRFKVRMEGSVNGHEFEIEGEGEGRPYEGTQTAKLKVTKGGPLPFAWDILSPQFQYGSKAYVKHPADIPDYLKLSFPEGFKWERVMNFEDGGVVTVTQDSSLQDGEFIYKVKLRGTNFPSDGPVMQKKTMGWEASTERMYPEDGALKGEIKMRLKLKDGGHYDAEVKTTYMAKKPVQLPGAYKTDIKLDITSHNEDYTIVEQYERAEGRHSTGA", "experiment": "FACS, transfected HEK293, 10 µg/ml antibody"}, "human CLDN18.2-mRFP G65P": {"molecular_target": "human CLDN18.2-mRFP G65P (human)", "sequence (chain, as listed by the source G65P G65P limits assumed)": "as the sequence (chain, as listed by the source N45Q N45Q limits assumed) above, with Q45N, G65P counted along it", "experiment": "FACS, transfected HEK293, 10 µg/ml antibody"}, "[1]": {"molecular_target": "T1, human CLDN18.2-mRFP1, wild-type (human)", "T1 construct": "human CLDN18.2 (amino acid 1-261) fused to mRFP1 (amino acid 1-225), transiently expressed in HEK293 cells; also called wild-type human CLDN18.2-mRFP", "experiment": "FACS, transfected HEK293, 10 µg/ml antibody"}, "human CLDN18.2-mRFP Q29M": {"molecular_target": "human CLDN18.2-mRFP Q29M (human)", "sequence (chain, as listed by the source Q29M Q29M limits assumed)": "as the sequence (chain, as listed by the source N45Q N45Q limits assumed) above, with Q29M, Q45N counted along it", "experiment": "FACS, transfected HEK293, 10 µg/ml antibody"}, "human CLDN18.2-mRFP E56Q": {"molecular_target": "human CLDN18.2-mRFP E56Q (human)", "sequence (chain, as listed by the source E56Q E56Q limits assumed)": "as the sequence (chain, as listed by the source N45Q N45Q limits assumed) above, with Q45N, E56Q counted along it", "experiment": "FACS, transfected HEK293, 10 µg/ml antibody"}, "human CLDN18.2-mRFP A42S": {"molecular_target": "human CLDN18.2-mRFP A42S (human)", "sequence (chain, as listed by the source A42S A42S limits assumed)": "as the sequence (chain, as listed by the source N45Q N45Q limits assumed) above, with A42S, Q45N counted along it", "experiment": "FACS, transfected HEK293, 10 µg/ml antibody"}, "human CLDN18.2-mRFP L69I": {"molecular_target": "human CLDN18.2-mRFP L69I (human)", "sequence (chain, as listed by the source L69I L69I limits assumed)": "as the sequence (chain, as listed by the source N45Q N45Q limits assumed) above, with Q45N, L69I counted along it", "experiment": "FACS, transfected HEK293, 10 µg/ml antibody"}, "human CLDN18.2-mRFP N37D": {"molecular_target": "human CLDN18.2-mRFP N37D (human)", "sequence (chain, as listed by the source N37D N37D limits assumed)": "as the sequence (chain, as listed by the source N45Q N45Q limits assumed) above, with N37D, Q45N counted along it", "experiment": "FACS, transfected HEK293, 10 µg/ml antibody"}, "human CLDN18.2-mRFP Q47E": {"molecular_target": "human CLDN18.2-mRFP Q47E (human)", "sequence (chain, as listed by the source Q47E Q47E limits assumed)": "as the sequence (chain, as listed by the source N45Q N45Q limits assumed) above, with Q45N, Q47E counted along it", "experiment": "FACS, transfected HEK293, 10 µg/ml antibody"}, "human CLDN18.2-mRFP W50A": {"molecular_target": "human CLDN18.2-mRFP W50A (human)", "sequence (chain, as listed by the source W50A W50A limits assumed)": "as the sequence (chain, as listed by the source N45Q N45Q limits assumed) above, with Q45N, W50A counted along it", "experiment": "FACS, transfected HEK293, 10 µg/ml antibody"}, "human CLDN18.2-mRFP N38A": {"molecular_target": "human CLDN18.2-mRFP N38A (human)", "sequence (chain, as listed by the source N38A N38A limits assumed)": "as the sequence (chain, as listed by the source N45Q N45Q limits assumed) above, with N38A, Q45N counted along it", "experiment": "FACS, transfected HEK293, 10 µg/ml antibody"}, "human CLDN18.2-mRFP L76A": {"molecular_target": "human CLDN18.2-mRFP L76A (human)", "sequence (chain, as listed by the source L76A L76A limits assumed)": "as the sequence (chain, as listed by the source N45Q N45Q limits assumed) above, with Q45N, L76A counted along it", "experiment": "FACS, transfected HEK293, 10 µg/ml antibody"}, "human CLDN18.2-mRFP R51A": {"molecular_target": "human CLDN18.2-mRFP R51A (human)", "sequence (chain, as listed by the source R51A R51A limits assumed)": "as the sequence (chain, as listed by the source N45Q N45Q limits assumed) above, with Q45N, R51A counted along it", "experiment": "FACS, transfected HEK293, 10 µg/ml antibody"}, "human CLDN18.2-mRFP L72A": {"molecular_target": "human CLDN18.2-mRFP L72A (human)", "sequence (chain, as listed by the source L72A L72A limits assumed)": "as the sequence (chain, as listed by the source N45Q N45Q limits assumed) above, with Q45N, L72A counted along it", "experiment": "FACS, transfected HEK293, 10 µg/ml antibody"}, "human CLDN18.2-mRFP Q29A": {"molecular_target": "human CLDN18.2-mRFP Q29A (human)", "sequence (chain, as listed by the source Q29A Q29A limits assumed)": "as the sequence (chain, as listed by the source N45Q N45Q limits assumed) above, with Q29A, Q45N counted along it", "experiment": "FACS, transfected HEK293, 10 µg/ml antibody"}, "human CLDN18.2-mRFP R55A": {"molecular_target": "human CLDN18.2-mRFP R55A (human)", "sequence (chain, as listed by the source R55A R55A limits assumed)": "as the sequence (chain, as listed by the source N45Q N45Q limits assumed) above, with Q45N, R55A counted along it", "experiment": "FACS, transfected HEK293, 10 µg/ml antibody"}, "human CLDN18.2-mRFP W30A": {"molecular_target": "human CLDN18.2-mRFP W30A (human)", "sequence (chain, as listed by the source W30A W30A limits assumed)": "as the sequence (chain, as listed by the source N45Q N45Q limits assumed) above, with W30A, Q45N counted along it", "experiment": "FACS, transfected HEK293, 10 µg/ml antibody"}, "human CLDN18.2": {"molecular_target": "T2, human CLDN18.2 (human)", "T2 construct": "also called hCLDN18.2; Claudin-18 splice variant 2", "experiment": "FACS, HEK293-CLDN18.2 cells"}},
  "data": [
    {"binder": "59A9-C (antibody, human IgG1, V domains shown, also called chimeric 59A9) VH: QITQKESGPGILQPSQTLSLTCSLSGFSLSTYFIGVGWIRQPSGKGLEWLAHIWWNDNKYYNTALKSRLTISKDTSNNQVFLKIASVDTADTATYYCARMGSGAWFTYWGQGTLVTVSA VL: DIVMTQSPSSLTVTAGEKVTMSCKSSQSLLNSGNQKNYLTWYQQKPGQPPKLLIYWASTRESGVPDRFTGSGSGTDFTLTISSVQAEDLAVYYCQNDYYYPLTFGSGTKLEIK", "values": [
      {"measurement": "binding percentage vs wild-type CLDN18.2", "setting": "human CLDN18.2-mRFP N45Q", "result": 65, "unit": "%"},
      {"measurement": "binding percentage vs wild-type CLDN18.2", "setting": "human CLDN18.2-mRFP G65P", "result": 85.5, "unit": "%"},
      {"measurement": "binding percentage vs wild-type CLDN18.2", "setting": "[1]", "result": 100, "unit": "%"},
      {"measurement": "binding percentage vs wild-type CLDN18.2", "setting": "human CLDN18.2-mRFP Q29M", "result": 90.4, "unit": "%"},
      {"measurement": "binding percentage vs wild-type CLDN18.2", "setting": "human CLDN18.2-mRFP E56Q", "result": 52.7, "unit": "%"},
      {"measurement": "binding percentage vs wild-type CLDN18.2", "setting": "human CLDN18.2-mRFP A42S", "result": 90, "unit": "%"},
      {"measurement": "binding percentage vs wild-type CLDN18.2", "setting": "human CLDN18.2-mRFP L69I", "result": 106, "unit": "%"},
      {"measurement": "binding percentage vs wild-type CLDN18.2", "setting": "human CLDN18.2-mRFP N37D", "result": 92.7, "unit": "%"},
      {"measurement": "binding percentage vs wild-type CLDN18.2", "setting": "human CLDN18.2-mRFP Q47E", "result": 87.5, "unit": "%"},
      {"measurement": "binding percentage vs wild-type CLDN18.2", "setting": "human CLDN18.2-mRFP W50A", "result": 5.05, "unit": "%"},
      {"measurement": "binding percentage vs wild-type CLDN18.2", "setting": "human CLDN18.2-mRFP N38A", "result": 57.6, "unit": "%"},
      {"measurement": "binding percentage vs wild-type CLDN18.2", "setting": "human CLDN18.2-mRFP L76A", "result": 52.1, "unit": "%"},
      {"measurement": "binding percentage vs wild-type CLDN18.2", "setting": "human CLDN18.2-mRFP R51A", "result": 22.1, "unit": "%"},
      {"measurement": "binding percentage vs wild-type CLDN18.2", "setting": "human CLDN18.2-mRFP L72A", "result": 53, "unit": "%"},
      {"measurement": "binding percentage vs wild-type CLDN18.2", "setting": "human CLDN18.2-mRFP Q29A", "result": 54.8, "unit": "%"},
      {"measurement": "binding percentage vs wild-type CLDN18.2", "setting": "human CLDN18.2-mRFP R55A", "result": 49.7, "unit": "%"},
      {"measurement": "binding percentage vs wild-type CLDN18.2", "setting": "human CLDN18.2-mRFP W30A", "result": 3.2, "unit": "%"},
      {"measurement": "EC50", "setting": "human CLDN18.2", "result": 1.35, "unit": "µg/mL"}
    ]}
  ]
}
